Test [1] addresses T1, PTP1B-OX (Homo sapiens, UniProt P18031).
T1 construct: made in house; host or cells: E. coli BL21 (pET19b)
T1 sequence (P18031 3-277): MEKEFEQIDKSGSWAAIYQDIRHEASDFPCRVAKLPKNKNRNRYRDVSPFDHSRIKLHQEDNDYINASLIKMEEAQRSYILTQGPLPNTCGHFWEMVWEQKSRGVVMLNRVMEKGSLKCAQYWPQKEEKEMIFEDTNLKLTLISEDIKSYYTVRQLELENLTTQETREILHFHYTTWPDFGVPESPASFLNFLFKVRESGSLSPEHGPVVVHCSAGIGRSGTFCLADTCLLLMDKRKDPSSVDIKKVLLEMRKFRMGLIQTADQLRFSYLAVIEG
Description: In vitro binding assay, purified recombinant PTP1B (37 kDa) and purified scFv, Ni-NTA pull down. The note with it: purified proteins, scFv in molar excess, 2 hours at 4° C.; FIG. 9. As to the method:
They established conditions in which PTP1B is reversibly oxidized by H2O2 in solution (FIG. 8). An artificial protein substrate RCML, in which tyrosine was phosphorylated with ^32P using recombinant GST-FER kinase was used in this assay to measure the phosphatase activity. Recombinant PTP (37 kDa) was incubated with increasing concentration (50 μM to 100 mM) of H2O2. A quick buffer exchange was done to remove the H2O2 and reducing agent (TCEP) was added to reactivate the enzyme.
In the in vitro binding assay, purified PTP was reversibly oxidized with […] followed by a quick buffer exchange to remove H2O2 (FIG. 8). Purified scFv was incubated in molar excess with PTP1B-OX or with PTP under reducing condition (with 2 mM TCEP) in binding buffer (20 mM HEPES, pH 7.4, 300 mM NaCl, 0.05% BSA, 0.05% Tween-20 and 10 mM imidazole) for 2 hours at 4° C. Ni-NTA agarose was added and incubated for one hour at 4° C. Protein complex bound to Ni-NTA agarose beads was pulled down and washed (three times, 5 minutes each, at 4° C.) with binding buffer containing 20 mM imidazole to reduce non-specific binding to the beads. The protein complex was eluted from the Ni-NTA agarose beads with 500 mM imidazole (in binding buffer, pH 7.4) for 15 minutes at 4° C. with gentle shaking. The complex was separated by SDS-PAGE and PTP1B was detected with anti-PTP1B antibody (FG6) and scFv was detected with anti-HA antibody [anti-HA (3F10)-HRP, Roche] by immunoblotting. Eight different scFvs (scFvs 20, 21, 24, 28, 45, 48, 57, and 105), expressed and purified from bacterial cultures were tested by this in vitro binding experiment.

A further test addresses T2, PTP1B (reduced, active) (Homo sapiens, UniProt P18031).
T2 construct: made in house; host or cells: E. coli BL21 (pET19b)
T2 sequence (P18031 3-277 limits assumed): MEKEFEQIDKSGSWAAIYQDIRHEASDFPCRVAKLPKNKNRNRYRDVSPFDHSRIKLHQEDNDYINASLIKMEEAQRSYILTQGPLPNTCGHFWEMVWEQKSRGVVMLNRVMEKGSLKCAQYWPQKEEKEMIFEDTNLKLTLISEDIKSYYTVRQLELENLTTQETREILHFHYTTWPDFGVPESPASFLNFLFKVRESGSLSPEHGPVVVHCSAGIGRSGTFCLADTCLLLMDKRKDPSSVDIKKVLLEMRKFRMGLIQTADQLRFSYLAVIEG
Kind of test: Direct effect of scFvs/antibodies on PTP1B phosphatase activity (32P-pTyr-RCML substrate). The note with it: 32P-labeled pTyr-RCML substrate, FIG. 1. It counts as biochemical. Here is the method: (§1) Applicant's hypothesis was that scFvs that are able to bind to and stabilize the oxidized conformation of PTP1B in solution would inhibit reactivation by reducing agent, but have no direct inhibitory effect on phosphatase activity in assays in vitro. Activity was measured using ^32P-labeled pTyr-Reduced Carboxamidomethylated and Maleylated Lysozyme as substrate. Applicant established conditions in which wild type PTP1B could be reversibly oxidized in vitro. PTP1B was inactivated following addition of H2O2. […] Applicant validated this approach further, by testing the effects of expressing one of the scFvs (scFv45) as a single chain antibody fragment “intrabody” to PTP1B, using 293T cells as the expression system. This intrabody was expressed transiently and then tested for effects on insulin signaling, focusing initially on the tyrosine phosphorylation status of the beta-subunit of the insulin receptor and insulin receptor substrate (IRS-1).
(§2) Reduced carboxamidomethylated and maleylated lysozyme (RCML) was labeled with ^32P using recombinant GST-FER kinase to stoichiometries up to 0.8 (mol ^32P incorporated/mol of protein). This ^32P-Labeled phospho-tyrosyl RCML was used as the substrate in the in-solution phosphatase assay for screening the conformation sensor scFvs. Recombinant PTP1B was reversibly oxidized and transiently inactivated with H2O2 (5× molar excess of the protein). […] Purified bacterially expressed scFvs (100× molar excess of PTP1B) were incubated with PTP after H2O2 treatment and its removal and the effect of individual scFv on stabilizing the reversibly oxidized conformation was assessed by the phosphatase assay under reducing condition.
In order to screen the isolated scFvs for those that inhibit reactivation of PTP1B-OX by reducing agent, but have no direct inhibitory effect on phosphatase activity in assays in vitro, the effect of six scFvs (scFv20, scFv34, scFv45, scFv57, scFv64 and scFv106) on PTP1B activity was determined. PTP1B activity was measured using 32P-labeled pTyr-Reduced Carboxamidomethylated and Maleylated Lysozyme as substrate (FIGS. 1 and 2). Addition of the reducing agent TCEP alone had no substantial effect in PTP1B activity was assessed.

Test [2] concerns the target T1, PTP1B-OX. Description: Inhibition of reactivation of reversibly oxidized PTP1B by reducing agent (RCML phosphatase assay). The note with it: PTP1B oxidized with H2O2, buffer exchange, TCEP added; FIG. 2. It is filed as biochemical. Here is the method: as §1, §2
In a different experiment, conditions were established in which wild type PTP1B could be reversibly oxidized in vitro. […] Addition of the reducing agent alone had no substantial effect on PTP1B activity (FIGS. 1 and 2, “PTP1B”).

B1: scFv45: conformation-sensor scFv binding PTP1B-OX, SEQ ID NO: 26 and 78; expressed as intrabody (protein)
scFv: MKKTAIAIAVALAGFATVAQAALTQPSSVSANPGGTVKITCSGSSSAYGYGWYQQKSPGSAPVTVIYNNNKRPSNIPSRFSGSKSGSTGTLTITGVQAEDEAVYFCGSEDSSTDAIFGAGTTLTVLGQSSRSSTVTLDESGGGLQAPGGALSLVCKASGFTFSSYDMGWIRQAPGKGLEYVAGITDNGRYASYGSAVDGRATISRDNGQSSVRLQLNNLRAEDTGTYYCARDDGSGWTGNSIDAWGHGTEVIVSSTSGQAGQHHHHHHGAYPYDVPDYAS
Consider B1, for which the “binding to PTP1B-OX in vitro” value in the test with PTP1B-OX [1] is reported as “specific binding to PTP1B-OX”. Moreover, the “direct effect on PTP1B activity” value with PTP1B (reduced, active) is recorded as “no direct inhibition of PTP activity”. Besides, the “inhibition of reactivation of PTP1B-OX by reducing agent (restoration of PTP1B activity after reversible oxidation)” value in the test with PTP1B-OX [2] was “substantial inhibition of the restoration of PTP1B activity”.

B2: scFv57: scFv binding PTP1B-OX, SEQ ID NO: 27 and 90 (protein)
scFv: MKKTAIAIAVALAGFATVAQAALTQPSSVSANPGAFNKITCSGSSSAYGYGWNQQKSPGSAPVTVIYNNNKRPSNIPSRFSGSKSGSTGTLTITGDQDEDEDFYFCGSEYSSTDAIFGAGTTLTVLGQSSRSSTVTLDESGGGLQAPGGALSLVCKASGFTFSSYDMGWIPQAPGKGLEYVAGITDNGIYASYGSAVDGRATISRDNRQSSVKLQLNNLKADDTGTYYCARDDGSGWTGNSIDAWGHGTEVIVSSTSGQAGQHHHHHHGAYPYDVPDYAS
B2: the “binding to PTP1B-OX in vitro” value in the test with PTP1B-OX [1] is reported as “specific binding to PTP1B-OX”. Besides, the “direct effect on PTP1B activity” value in the test with PTP1B (reduced, active) is on record as “no direct inhibition of PTP activity”. For the same molecule, the “inhibition of reactivation of PTP1B-OX by reducing agent (restoration of PTP1B activity after reversible oxidation)” value with PTP1B-OX [2] is “substantial inhibition of the restoration of PTP1B activity”.

(Values after US9074002B2, “PTP1B inhibitors” (Cold Spring Harbor Laboratory, priority 2009, dated 2015).)
